The record followed here is patent US20230279079A1 (published 2023).

The test deals with RBD-VLP (SARS-CoV-2, UniProt P0DTC2 340-538).

B1: FI-1C (antibody, V domains shown)
VH: EVQLVESGGGLVKPGGSLRLSCAASGFTFSDYYMSWIRQAPGKGLEWVSYISSSGSTIYYADSVKGRFTISRDNAKNSLYLQMNSLRAEDTAVYYCARRSNRFLIAFDIWGQGTMVTVSS
VL: QSALTQPASVSGSPGQTITISCTGTSSDVGGYNYVSWYQQHPGKAPKLMIYEVSNRPSGVSNRFSGSKSGNTASLTISGLQAEDEADYYCSSYTSSSTLVVFGGGTKLTVP
Regarding B1, the IC50 – broadly, the concentration needed to halve the response being measured – stood at 23 nM.

B2: FI-3A (antibody, V domains shown)
VH: EVQLLESGGGLIQPGGSLRLSCAASGFTVSSNYMSWVRQAPGKGLEWVSVIYSGGSTYYADSVKGRFTISRDNSKNTLYLQMNSLRAEDTAVYYCARDHVRPGMNIWGQGTMVTVSS
VL: not shown
As for B2, the IC50 was found to be 3 nM.
